Assay results: the domain aggregation screens of Martell et al. (2025)

Test: soluble fraction after stress (log2 fold change); higher = more stays soluble; pooled small domains, quantitative proteomics
Conditions: stress: pH 4
Summary of the method: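 Pooled custom libraries of small protein domains were stressed at pH 4 and then measured by high-throughput quantitative proteomics. The fold change in the amount of each domain that stays soluble after the acid stress serves as a measure of aggregation propensity. Fold changes are given on a log2 scale, and higher values mean more of the domain stayed soluble.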

Point of comparison: “HMWQPIKLDRGDWQNSLQVGDRVFVRGIPRPVEILSAVDEENNIEVLMGTMRAKIPVYQLDKPAENFIDTT”, “soluble fraction (log2)” value -0.711. Against it:
- HMVLVSNYGEVVRKARERKGLDHGSLAMKISEKKSIITSVESGNMKPNEKLIKKLENFLNINLM — higher, -0.471
- HMVMIPDLVGETIEDAKDILEGLGFEVEVRSEFPESDWGRPFARVTSLSPSAGQEVAKGTLVIIRSF — higher, -0.144
- HMVMLIVMNHTASQADIDKVIEVVSGMGFTAAPIPGGERTAIGVLGNKGYVDDSTIRDLPGVQQAIHVSKP — higher, -0.301
- HMVMSVGENIAYFRKKLGLTQEMLSERIGVTAQAVSKWENGVTNPDISLLPRISEALGIGIGDLFD — higher, -0.218
- HMVNAVKFAIEKMPYKYSSLLTLKYVMGYSGKEIAEITGLSETNVRQQLLKGRKLLESMLEE — higher, -0.105
- HMVNGTPADPYDVLGVESSASPEELRAAWQTLVRQNHPDQLMARGVPLEAVKLAEARLVAINQAWDDLTK — lower, -1.33
- HMVNHVGITVSNLERSIQFYEALTGKKIANQDTIGGKRMAQTQGLADTLIKYANLHLDNLNIDLLEYVE — higher, -0.448
- HMVNIAVMTVSDTRTEADDKSGSLLVSKIEGDGHVLADRAIITDDVPRIIAKLKEWIESPQVDVVVT — within 0.2 log units, -0.606
- HMVNINEVEVSRDLAHAKVFVTFVGDRTDEINTQALKVLNAAQGFLRSRIASNNHMRTTPRIHF — higher, -0.214
- HMVNIPEIAKKFGKSTSEVFEQIQIGEKHEMEHTNDPKKARKIALDHLSDDMDYYKKLKKLG — higher, ≥ 0.43
- HMVNLKQVELREHHPWVGHKIKELDISRHTLIVMIRRGDNAIVPNGDTLIKSGDIVFVFSKR — within 0.2 log units, -0.839
- HMVNPHPVYRSWGLLYVEARDGDSLESIAKEFGFSVKKLAKYNEVPKDYPLEAGDIVYLEKKKK — higher, 0.019
- HMVNPIDFYLLFRTELQRLAEHPITVDRLTEVTGLNKLQVLDWLKRAEQDGLVKKLNRPTRYQLN — within 0.2 log units, -0.536
- HMVPAMGSLTLIKGGVNLRNAPGGLTIAQLDRGLVLSYTKFVQKDGYTWYLVNSPKGTGYVRSDVVQLGS — higher, -0.3
- HMVPDGFDQLTEREYQVAMAVGKGLNNKEIASQLGLGERTVKAHLTTTFEKLHVRDRVQLALIVNRL — higher, -0.404
- HMVPDVVGKDYALAQAELEGANLVVAKGSSRYDDTLPAGVVLATDPKVGTVVKPGAKVTVILSK — higher, 0.268
- HMVPLSMLTEGQIFRGQVLDITSQGIKIQLNPEQILFARLGEQVELNIGQQMAFQVRENKGDQLIIHPMQN — lower, -1.18
- HMVPVQLTPRELQVARLAAHGASSPEIAAELRVSRRTVDNQLGRVYAKLGIAGRAELAAALSRLPVSV — higher, ≥ 0.43
- HMVPVSIYAYNKIKTAILNNELMPGEKLVEASLAETLNMSRTPIREALRQLEQEGFVTYYPQKGSIVSH — within 0.2 log units, -0.91
- HMVQAQGARIREARVQRGLSQAQLGEPRYSGSYISHIENGRRSPGTDVLAFIAARLGLEPGALDS — higher, -0.164
- HMVQIFIPVVHDDHWFLIVFSREEDTFYVLDSLPSLSRISTINGIISTLKEHLQQASVGPQYSVKVLPVK — higher, 0.144
- HMVQLAEGERYRRIQEANDFINRQQWPGKAAMGRLKDTEKAQYNLWLDYLDALEAVDTSSAPKINWPVPPE — higher, -0.156
- HMVQQAVNMAKPGKLFTGPSPTSKALRDLDAGAMLYPTGEKQGPFWKVQDELGNEGWVAMGLLQLA — higher, -0.0346
- HMVQVDNELTEFSVQSITRGIDALGEVTIRVTAPDGGVYTGRGADNDIIVSSTKAYLNALNRLLNDK — within 0.2 log units, -0.552
- HMVQYVDFVKRMIEELPWWHRRMLELKYLDGLTYEEIADELQVPVGTVKGTLHRAKELFQEILKNN — lower, -1.71
- HMVRDPYELLEVPREATPDEIKSAFRKLAARHHPDRNPDDPGAQERFKEINAAYQLLSDPQKRAMFDRFGA — higher, 0.331
- HMVRKIQAKLVLRLHAQGLSGRAIARSQGMSRRSVSDVLDAARAVGVGWDDVTGKTDGEVYALLFPGRG — higher, 0.0261
- HMVRKIRARLVLQLRAEGLSGRAIAGSQGMSRKSVTAVLDAADRAGIGWDEIAERSEGEVYALLFPGRG — lower, -1.18
- HMVRQKYKSNFITVGDKSLTIHDWAQRLNLSQYALRNRYKEFGKEWVEKAIKTILETGDNTHIYK — higher, 0.0662
- HMVRSLADQVYERLRRNIVSGDLAPNARIVELDIAAQMGTSQGPVREALQRLEREGLVQRRAHSATFVTD — higher, -0.324
- HMVRVSELAIEPRLVVEETATGFVGAVVRYANGLIELEDRHGAVRTFPLGPGYLVDGRPVSLVKPT — higher, -0.35
- HMVSEDELLARIALLPYPQAKILLEERLSHDPANAKVRQLYLELAKKSGDHTEVTRHNSLLY — higher, 0.0149
- HMVSKIEAPLPGIILSVDVKEGDTVKAGDKLMVMEAMKMENAILAETNGVVKSIKVKIQDSVLQGDILAEI — lower, -1.07
- HMVSKSDVQRALEKVEPVLRKLGGSTVEKVRVMARQATLVFEMLKSWWKGEIDLPWKTVAAMTVTLLYL — higher, -0.322
- HMVSLNKTEFIAVKKASASELRDKINSLGLDVLKDATISADARTNQIIATGPKYALEQIKMLVVGLDVSS — higher, 0.313
- HMVSLRQQVYDYLRSQMNQGELRPGSAINLGEMSSRFGISRTPLREALLQLETEGFVTIYPRKGIIVN — higher, -0.243
- HMVSLTGEWRPSKDALDILITKGGINPNFIDDAVPEFILYWRDRGDVSNTWDSKFIQHVRRQWQFYTGI — lower, -1.66
- HMVSMSFDDYVNDAKEYESEGDKDKAYNSYLEAYKLNKSSEEVLDYLIDNTEDVTLKLNYVYEYLDL — higher, -0.32
- HMVSNFEAEFGRHFAIFFPGSEFTELKLRLLEEGAELIDPIRDTPFERFFFKDPNGYIFEVIDKE — lower, -2.33
- HMVSNRMVYSDFQQKWINNQVESINVNADKMTIEVTTQDEKKYTVYAPSSMIEFLNEQYPKDDIKIEYVAP — lower, -0.94
- HMVSPLEKSQSFGSFEISREFARTLGLTSARNWENWAASDSRPINIPYSPNVFYKNKGWIDWSDWLGTE — higher, -0.124
- HMVSRQINVIPDDLAGLRLDQALAHLFPQHSRSRLKEWLLEDIIIVQGGPKRPKDIVSGGEIVEIKL — lower, -1.2
- HMVSYTLPTLHTGKNWYVDFTAYDPAEQKMKRKKYMLDGISKITERRKRAVDIIATVTARLRSGWNPWA — higher, 0.0419
- HMVTARMPDLFGLDEATAQRMVSNAGLTLKTEYAYSDQAEGYVFDQTPEANAEVRRGGTVTAMIS — higher, -0.375
- HMVTEIDYGAFIKMTEEGNIGEVKIEDNQIVFTDKENKAIYKTGIMPDSDLTQRLYDSGAVFA — lower, -1.27
- HMVTEKPLYRDELMDHDTVWVEPISMDSHLRMELRGWYHVKNRFVENEVGQRFYFDFYDIKWLAFTNGP — higher, ≥ 0.43
- HMVTINTASLEKAIADAKAVVKESYTTDSYNAMKAVLDEAEDLLKEEAQDQDTIDAKTEALNAAIEALVKR — higher, -0.337
- HMVTLPLLKRGHTGLPVKALQTLLVLRGMSVDVDGSFGEKTESAVRTFQTAAKILSDGEVGKDTWKALI — lower, -0.911
- HMVTPPMVVVDVQGEVKTPGVYHLPTNSRVNDAIKAAGGPKQSADLSYINQARMVKDGEQIYVEKKL — higher, 0.0679
- HMVTTDPIADMLTRIRNASSQKHKSVDVPASKEKLAIAQILFEEGYIKSFEEIKEENNQGVIRITLKYTEK — higher, -0.0598
- HMVTVPNYSDPRQYVEWGNANGITINRAVGDTIASMSGRVQDVRDSNGNSVIGKKVKKGSTVTVYIYFLK — higher, -0.0785
- HMVTVSAVNITPKGHTTVGFTDRSVNPPSNYYLRVGESADGWTVKDADFDDEIATLEKDGVAITLKL — within 0.2 log units, -0.548
- HMVTYELTEDEKFIVSLLEKENSQPIGALKDKSALSGKKWDAAMKGLAKHGLTKVVVDGDNKLVVL — higher, -0.184
- HMVVEDDTVLQAVKQAIEENPEAVSDYFEGKSKALNFLVGQVMRITRGKADPAKTNQMVVEELKNR — higher, 0.112
- HMVVMKGKVKWFNKNKGYGFIITDDNKEYFVHWKSIVTNSPRELKVLEQDELVTFDLMETDKGIQAINII — lower, -1.22
- HMVVPELNLAQQDVLRALRQRGRATADHLSVDTHRPVSEVMGILLGLEIAEVLYRVEGGWFVPKTAR — lower, -1.04
- HMVVSDKIAFSSFLKSVEDGRVVEVEITGNDIRGILSDGTVFNTYAPNDPNLVEKLTSKGVNITALPKE — higher, 0.0738
- HMVVYQRVHDEILQALKDNVYPVGTLLPPEPELERIYSVSRTTVRRAIAKLSEEGYVQVRQGYGTMVLKN — higher, 0.22
- HMWGAYHDGQVVKFPKKVTVYVIDGQYKRPLANEFVLKFLNYKTSDIIIDKDGNLNNYKNGAVVEH — higher, -0.332
- HMWMQKILGNYIAARRKELGMTQANLAEKIHVTDKAVSRWERGVGLPDIENLEALAKALEVSLVSLMQGKT — higher, 0.22
- HMWNGIVDAGKARQHLMNLSQLGVGRRAVAAASDVAETVLMDIRSGTKTRIRARTERQILAVTPEMA — higher, 0.22
- HMWNTADDIKEAIWKLIQSEDPKKPYSDLKISQLLLEKEMKISRRTVAKYRKEMGILGTYSRK — higher, 0.23
- HMWQVVEVDYGTFMSMTEDGQVGRVEIQEQENLILFTDQEETTVYKTAMVDDPDLTARLHDAGIPFYGQE — lower, -2.29
- HMWSGEPFLDELRHADTLLETDPEAALAEYRALADKGSAAAMMALGNAYASGSHVARDEGEAEHWYRRAA — within 0.2 log units, -0.752
- HMWSLLVILQLREGGQRFSQLQRAIPDISQRMLTQTLRKLERDGLVSRKVTPSTPPRVDYAITELGH — within 0.2 log units, -0.556
- HMWSQEPEYRPLYNSMDGFDAGQVVEMLQQSRIDYKVEPNSGALLVRSEDLADARLRLASAGISP — lower, -0.959
- HMYAEVTITIEKGMTSDSVSKLLYKAGIVDDAKEFNNYIIKAGKSTKILIGEFTIQKGASYDDIIKIIA — higher, -0.133
- HMYAGTVTQVKNNKVMLEFDGETVNVGDQFFILNSDGKKVAIVEITAAKNKKALANVLKGKAVVDGTTQAK — higher, -0.404
- HMYAVDTIHKGTITEMTDKGAVVSLGDNIDGFAPARQLVKEDGTTLKLGDTADFKVIEFSKATKRITLSH — higher, 0.094
- HMYAVQKGDTLKKIADQFGISVDTIKWANDMKGDALSIDQELKIP — higher, 0.0154
- HMYDAEAINKFFDIENWDFGETFYFQELSAYIMNQLSPKLVTILIVPRQTTQAFGSLFEIKSEPDEIFAS — higher, -0.0578
- HMYDDEELDVLAHRPIESYTDAELAMLREVAETLLETDYEGWLKSLSMRGILLPPEILQLVT — lower, -1.29
- HMYDDLEPFDANGRLRWSDKELILAFGRHRGVTLQTLELNDPGYLRWLLSGNGPLEQQDRKRLEDILES — lower, -1.36
- HMYDEKTLRKAVLDYVRDNDDGRLDLMKIDSYLTSRYGNIDYAALGYNRLSMFISSFPELRRNSNYVTLRK — higher, -0.158
